Target: murine PECAM-1 on cells (bEND3 endothelial cells; REN cells transfected with full-length mouse PECAM) (mouse) (UniProt Q08481)
Assay: flow cytometry on CD31 positive bEND3 endothelial cells

murine PECAM-1 on cells (bEND3 endothelial cells; REN cells transfected with full-length mouse PECAM) (mouse), sequence (Q08481 18-727): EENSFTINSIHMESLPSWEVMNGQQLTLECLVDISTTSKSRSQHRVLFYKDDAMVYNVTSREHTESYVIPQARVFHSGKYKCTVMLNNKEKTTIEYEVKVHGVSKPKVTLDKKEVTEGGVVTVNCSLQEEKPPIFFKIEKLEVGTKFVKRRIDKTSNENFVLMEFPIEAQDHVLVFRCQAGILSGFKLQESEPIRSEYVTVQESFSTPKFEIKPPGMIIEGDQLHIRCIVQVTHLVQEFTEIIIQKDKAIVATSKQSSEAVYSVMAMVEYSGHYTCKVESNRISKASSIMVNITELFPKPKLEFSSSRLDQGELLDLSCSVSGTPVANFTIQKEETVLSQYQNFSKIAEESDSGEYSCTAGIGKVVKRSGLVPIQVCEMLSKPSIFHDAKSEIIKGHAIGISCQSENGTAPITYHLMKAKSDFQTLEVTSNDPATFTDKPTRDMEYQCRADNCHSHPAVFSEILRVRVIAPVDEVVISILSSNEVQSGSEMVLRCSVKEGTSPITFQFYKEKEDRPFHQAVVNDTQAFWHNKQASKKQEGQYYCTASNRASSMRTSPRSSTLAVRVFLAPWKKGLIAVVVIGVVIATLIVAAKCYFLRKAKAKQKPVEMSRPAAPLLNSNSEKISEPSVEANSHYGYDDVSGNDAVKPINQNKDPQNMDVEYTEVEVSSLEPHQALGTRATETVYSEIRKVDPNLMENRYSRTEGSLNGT

anti-PECAM scFv (from antibody 390) tagged with soluble tissue factor (sTF)
half-maximal binding: 50 nM
